# Laboratory results: patent US20240026407A1, “MODIFICATION OF SAPONINS” (GLAXOSMITHKLINE BIOLOGICALS SA, priority 2020, published 2024)
# How the values were obtained:
# [1] = Example 9: screening of rhamnosidase variants for derhamnosylation of saponins in crude bark extract; format: biochemical, Quillaja saponaria; conditions: for Cumulative FIOP from WT: estimate
# Summary of the method: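 His-tagged Kribbella flavida rhamnosidase variants expressed in colonies; cell lysates added at the indicated % loading (1% = 2 ul lysate per 200 ul reaction) to pH 6 Quillaja saponaria aqueous bark extract (≥2.80 mg/ml QS-21) at 75% or 80% volume. Quenched with acidified MeCN, analysed by UV HPLC; activity as % conversion of the QS-17-family Left Peak.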
# [2] = Example 10: derhamnosylation of saponins in crude bark extract (50%) using WT and engineered rhamnosidases R1 to R5; format: biochemical, Quillaja saponaria; conditions: 7 h, 50% CBE, 35 degC; for % Right Peak: starting CBE 26; for % Left Peak: starting CBE 30; for % Middle Peak: starting CBE 44
# [3] = R4 round: 35 deg C, 18 h, lysate 0.125% v/v, CBE 75% v/v, 100 mM Sodium acetate pH 5.8
# [4] = rhamnosidase 0.31 mg/ml + glucosidase G5 0.5 mg/ml
# [5] = rhamnosidase 0.31 mg/ml, no glucosidase
# [6] = R1 round: 20 deg C, 22 h, lysate 1.25% v/v, CBE 80% v/v, 100 mM Potassium phosphate pH 6
# [7] = rhamnosidase 2.5 mg/ml + glucosidase G5 0.5 mg/ml
# [8] = rhamnosidase 2.5 mg/ml, no glucosidase
molecule,measurement,setting,value
"Variant R4: engineered rhamnosidase polypeptide, variant of Kribbella flavida rhamnosidase SEQ ID No. 1017 (protein, Seq ID No. 1017 with mutations A143P, L214M, G215S, G218N, K219G, G357C, G508S, G634A, Q921H) MSFPAAPARLRFEHRTDPGPVLGIGTATPRLSWQVPTAPDDYRQAGYEVEIARGDAAPEQYTVDSADQVLVPWPGTPLAARESATVRVRVRGDGDWSQWSDPATVEAGLLSADDWTARFVSPRENAGHEAPAPLIGGVIDLPPDIAQARLYATAHGIYEPTLNGTRVGDEQLAPGWTAYEQRLRYQTYDVTDLVAPGENRLELLVGNGWYRGRMSFHNGHSLYGDRLAVLAQLEVTTATGEVKVLASDGTWTTRETNVLADDLYDGQHVDLRRTLGEPGPVDVLDADLSLLVAPDGPPVRVTDVLPAKAVTTSPAGKTLVDFGQNVVGRLRLRVRGGAAGDEIVLRHAEVLEDGELCVRPLRTAKATDSFVLAGPDEVTLEPTLTFHGFRYAEITGVPDLRAEDVEAVVVGSDLRRTGWFESSHPLLDRFHENVVWGMRGNFLDVPTDCPQRDERLGWTGDIQVFSPTASFLFDTAGFLTNWLADLIAEQHKDGSVPFVVPDVLRQPSPATAAWGDAATIVPWVLYERTGDAGLLARQLPSMRAWVDRMAGLAGDDLLWVGGFQFGDWLDPTAPPDDPFRAKADPDVLATAHLARSAEVVALAAEVVGAGELAREYAELAARVRQAFAAEYTTASGRVLSDAATNYALALQWALLPTEAQRKRAGERLADLVRTAGFRISTGFVGTPLMADALADSGHPDLAYRLLLETGCPSWLYAVTMDATTVWERWDSMLPDGSINPGQMTSFNHYALGAVADWMHRRVAGLAPGDPGYRRIVVDPLFTAHLTKASARHLTPYGEAAVAWSRSGGRVRLEVTVPVGARARVAVPGESAPVEVGHGTHEWTADDVYGETPPLPADATIRQLIDHEPSWTTLAAAATRTGIVADDAELAGRLERYLDHPATELVDAVSPRGFSPSAEALHAELDSVLGR",% conversion (Right peak/Left Peak) (−neg control),[1]; [3],5.06%
same,Cumulative FIOP from WT,[1]; [3],22.1
same,Right Peak %,"[1]; R4 round: 35 deg C, 18 h, lysate 0.125% v/v, CBE 75% v/v, 100 mM Sodium acetate pH 5.8, negative control 26.09",27.00%
same,Left Peak %,"[1]; R4 round: 35 deg C, 18 h, lysate 0.125% v/v, CBE 75% v/v, 100 mM Sodium acetate pH 5.8, negative control 29.62",25.03%
same,Middle Peak %,"[1]; R4 round: 35 deg C, 18 h, lysate 0.125% v/v, CBE 75% v/v, 100 mM Sodium acetate pH 5.8, negative control 44.29",47.96%
same,% conversion (Right peak/Left Peak),"[1]; R4 round: 35 deg C, 18 h, lysate 0.125% v/v, CBE 75% v/v, 100 mM Sodium acetate pH 5.8, negative control 46.84",51.89%
same,FIOP (% area increase variant/pos control),"[1]; R4 round: 35 deg C, 18 h, lysate 0.125% v/v, CBE 75% v/v, 100 mM Sodium acetate pH 5.8, positive control R3",2.3
same,% conversion (Right peak/Left Peak) (−neg control),"[1]; R5 round: 35 deg C, 18 h, lysate 0.0625% v/v, CBE 75% v/v, 100 mM Sodium acetate pH 5.8",2.02%
same,Right Peak %,"[1]; R5 round: 35 deg C, 18 h, lysate 0.0625% v/v, CBE 75% v/v, 100 mM Sodium acetate pH 5.8, negative control 26.23",26.79%
same,Left Peak %,"[1]; R5 round: 35 deg C, 18 h, lysate 0.0625% v/v, CBE 75% v/v, 100 mM Sodium acetate pH 5.8, negative control 28.76",27.09%
same,Middle Peak %,"[1]; R5 round: 35 deg C, 18 h, lysate 0.0625% v/v, CBE 75% v/v, 100 mM Sodium acetate pH 5.8, negative control 45.00",46.12%
same,% conversion (Right peak/Left Peak),"[1]; R5 round: 35 deg C, 18 h, lysate 0.0625% v/v, CBE 75% v/v, 100 mM Sodium acetate pH 5.8, negative control 47.70",49.72%
same,% change in Left Peak,[2]; [4],−42%
same,% change in Middle Peak,[2]; [4],−93%
same,% change in Right Peak,[2]; [4],306%
same,Cumulative Fold improvement in primary enzyme loading × time,[2]; [4],16
same,Fold improvement in primary enzyme loading × time,[2]; [4],2.0
same,% Right Peak,[2]; [4],79%
same,% Left Peak,[2]; [4],17%
same,% Middle Peak,[2]; [4],3%
same,% change in Left Peak,[2]; [5],−45%
same,% change in Middle Peak,[2]; [5],22%
same,% change in Right Peak,[2]; [5],115%
same,Cumulative Fold improvement in primary enzyme loading × time,[2]; [5],16
same,Fold improvement in primary enzyme loading × time,[2]; [5],2.0
same,% Right Peak,[2]; [5],30%
same,% Left Peak,[2]; [5],16%
same,% Middle Peak,[2]; [5],54%
"Variant R1: engineered rhamnosidase polypeptide, variant of Kribbella flavida rhamnosidase SEQ ID No. 1017 (protein, Seq ID No. 1017 with mutation K219G) MSFPAAPARLRFEHRTDPGPVLGIGTATPRLSWQVPTAPDDYRQAGYEVEIARGDAAPEQYTVDSADQVLVPWPGTPLAARESATVRVRVRGDGDWSQWSDPATVEAGLLSADDWTARFVSPRENAGHEAPAPLIGGVIDLPADIAQARLYATAHGIYEPTLNGTRVGDEQLAPGWTAYEQRLRYQTYDVTDLVAPGENRLELLVGNGWYRGRLGFHGGHSLYGDRLAVLAQLEVTTATGEVKVLASDGTWTTRETNVLADDLYDGQHVDLRRTLGEPGPVDVLDADLSLLVAPDGPPVRVTDVLPAKAVTTSPAGKTLVDFGQNVVGRLRLRVRGGAAGDEIVLRHAEVLEDGELGVRPLRTAKATDSFVLAGPDEVTLEPTLTFHGFRYAEITGVPDLRAEDVEAVVVGSDLRRTGWFESSHPLLDRFHENVVWGMRGNFLDVPTDCPQRDERLGWTGDIQVFSPTASFLFDTAGFLTNWLADLIAEQHKDGSVPFVVPDVLRQPGPATAAWGDAATIVPWVLYERTGDAGLLARQLPSMRAWVDRMAGLAGDDLLWVGGFQFGDWLDPTAPPDDPFRAKADPDVLATAHLARSAEVVALAAEVVGAGELAREYAELAARVRQAFAAEYTTGSGRVLSDAATNYALALQWALLPTEAQRKRAGERLADLVRTAGFRISTGFVGTPLMADALADSGHPDLAYRLLLETGCPSWLYAVTMDATTVWERWDSMLPDGSINPGQMTSFNHYALGAVADWMHRRVAGLAPGDPGYRRIVVDPLFTAHLTKASARHLTPYGEAAVAWSRSGGRVRLEVTVPVGARARVAVPGESAPVEVGHGTHEWTADDVYGETPPLPADATIRQLIDHEPSWTTLAAAATRTGIVADDAELAGRLERYLDHPATELVDAVSPRGFSPSAEALQAELDSVLGR",% conversion (Right peak/Left Peak) (−neg control),[1]; [6],2.74%
same,Cumulative FIOP from WT,[1]; [6],1.7
same,Right Peak %,"[1]; R1 round: 20 deg C, 22 h, lysate 1.25% v/v, CBE 80% v/v, 100 mM Potassium phosphate pH 6, negative control 26.35",27.08%
same,Left Peak %,"[1]; R1 round: 20 deg C, 22 h, lysate 1.25% v/v, CBE 80% v/v, 100 mM Potassium phosphate pH 6, negative control 29.36",27.04%
same,Middle Peak %,"[1]; R1 round: 20 deg C, 22 h, lysate 1.25% v/v, CBE 80% v/v, 100 mM Potassium phosphate pH 6, negative control 44.30",45.89%
same,% conversion (Right peak/Left Peak),"[1]; R1 round: 20 deg C, 22 h, lysate 1.25% v/v, CBE 80% v/v, 100 mM Potassium phosphate pH 6, negative control 47.30",50.04%
same,FIOP (% area increase variant/pos control),"[1]; R1 round: 20 deg C, 22 h, lysate 1.25% v/v, CBE 80% v/v, 100 mM Potassium phosphate pH 6, positive control WT",1.7
same,% change in Left Peak,[2]; [7],−40%
same,% change in Middle Peak,[2]; [7],−96%
same,% change in Right Peak,[2]; [7],309%
same,Cumulative Fold improvement in primary enzyme loading × time,[2]; [7],2
same,Fold improvement in primary enzyme loading × time,[2]; [7],2.0
same,% Right Peak,[2]; [7],80%
same,% Left Peak,[2]; [7],18%
same,% Middle Peak,[2]; [7],2%
same,% change in Left Peak,[2]; [8],−35%
same,% change in Middle Peak,[2]; [8],17%
same,% change in Right Peak,[2]; [8],112%
same,Cumulative Fold improvement in primary enzyme loading × time,[2]; [8],2
same,Fold improvement in primary enzyme loading × time,[2]; [8],2.0
same,% Right Peak,[2]; [8],29%
same,% Left Peak,[2]; [8],19%
same,% Middle Peak,[2]; [8],51%
